The values that follow come from patent US8846623B2, “Cancer-targeting peptides and uses thereof in cancer treatment and diagnosis” (Academia Sinica, priority 2010, dated 2014).

pKd: −log10 of the molar value. Square brackets hold non-standard residues; d marks the D form. Ends that are not written are not given here. Peptide text beside a SMILES is read from it.

The target in one assay is GRP78 (Homo sapiens, UniProt P11021). In words: Dissociation constant of L-peptide binding to GRP78. The settings on record: dose-dependent binding to GRP78.
Chain of GRP78 (P11021 19-654): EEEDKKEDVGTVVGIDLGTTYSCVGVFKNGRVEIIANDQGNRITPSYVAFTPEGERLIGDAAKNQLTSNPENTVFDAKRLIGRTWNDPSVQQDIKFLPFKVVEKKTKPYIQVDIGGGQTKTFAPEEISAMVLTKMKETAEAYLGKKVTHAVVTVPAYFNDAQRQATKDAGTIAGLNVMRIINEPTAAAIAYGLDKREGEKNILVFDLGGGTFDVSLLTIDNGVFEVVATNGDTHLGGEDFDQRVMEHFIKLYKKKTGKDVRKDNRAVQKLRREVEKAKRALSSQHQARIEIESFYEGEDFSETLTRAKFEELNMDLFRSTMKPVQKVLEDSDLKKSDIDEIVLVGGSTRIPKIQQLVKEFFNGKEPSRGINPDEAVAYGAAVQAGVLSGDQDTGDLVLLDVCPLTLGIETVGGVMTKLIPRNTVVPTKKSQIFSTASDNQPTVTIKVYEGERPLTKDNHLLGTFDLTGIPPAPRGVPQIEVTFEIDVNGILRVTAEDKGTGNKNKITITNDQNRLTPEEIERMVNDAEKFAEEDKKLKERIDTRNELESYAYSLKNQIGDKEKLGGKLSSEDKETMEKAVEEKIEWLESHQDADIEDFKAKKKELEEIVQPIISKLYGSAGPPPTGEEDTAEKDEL
For assay [1], the target named is full-length recombinant GRP78 (Homo sapiens, UniProt P11021). In words: Biacore binding assay of peptides. The settings on record: for Binding index: peptide at 50 μM, difference of RUs divided by molecular weight, normalized to the L-peptide; for Binding to GRP78 compared to the L-peptide: Biacore; for Binding to GRP78 compared to the L-peptide / binding responses in Biacore: in words. As to the method: 26 candidate peptides designed by the method described in Example 1 (listed in Table 6 below) above and peptide CdL, a negative control, were synthesized by conventional chemical synthesis and subjected to the surface-plasmon-resonance based method described below to examine the binding activities of the peptides to human GRP78.
Chain of full-length recombinant GRP78 (P11021 19-654): as above
The chip NTA and HBS-P buffer were obtained from GE Healthcare. Sensor chip NTA was prepared by combining Ni-ion chelation and covalent immobilization of N-His tagged GRP78 via amine-coupling with nitrilotriacetic acid on chip NTA (FIG. 6). To immobilize GRP78 protein on sensor chip for peptide-binding assay using Biacore, the methods based on Ni-ion chelation and amine coupling reaction were combined. Sensor chip NTA was prepared by chelation followed by covalent immobilization of N-His-tagged GRP78 via amine-coupling at the nitrilotriacetic acid group on chip NTA. The sensor chip NTA, HBS-P buffer and amine coupling kits were all obtained from GE Healthcare. First, the activation of chip surface using EDC and NHS reagents for amine coupling were according to the standard procedure from manufacturer's instruction. Additionally, one-minute pulse of NiCl2 solution (500 μM) was used to attract His-tagged GRP78 to the surface of sensor chip and formed covalent bond subsequently in the condition of HBS-P buffer (pH 7.4). The resulting differences of RU were about 5,000-6,000 RU. After de-activation by ethanolamine and washed with EDTA (3 mM), the prepared sensor chip was then applied to Biacore X for binding assay. The HBS-P buffer containing 1 mM Gly was used as running buffer for binding assay. Solution of 20 mM sodium hydroxide dissolved in running buffer was used to regenerate the chip surface by one-minute pulse.
The sensor chip thus prepared was applied to Biacore X for determining the binding between the peptides and GRP78. The HBS-P buffer containing 1 mM Gly was used as a running buffer. A solution of 20 mM sodium hydroxide dissolved in the running buffer was used to regenerate chip surface by 1-minute pulses.
The binding of various peptides to GRP78 is also shown as a binding index in Table 6. The binding index represents the difference of resonance units (RUs) divided by the molecular weight of each peptide and was normalized by comparison to the L-peptide.
Background: SPR reads the build-up and loss of mass on a sensor chip optically.

The next assay has as its system TW01 cells. Kind of assay: Flow cytometry binding of FITC-labeled peptide, TW01. Format: cell-based. To be noted: Nasopharyngeal. As to the method:
(§1) Cells were grown to 80% confluence and harvested with 5 mmol/L EDTA in PBS. Breast cancer specimens were obtained from patients who underwent initial surgery at Tri-Service General Hospital (Taipei, Taiwan). The clinical breast cancer specimens were sliced to fragments of 1 mm2 in size and subjected to enzymatic digestion by collagenase (1,000 U/mL), hyaluronidase (300 U/mL), and DNase I (100 μg/mL) at 37° C. for 2 hours. Primary breast tumor cells were collected after filtration through a 100 μm cell strainer (BD Biosciences) and re-suspended. For transplantation, tumor cells mixed with normal human breast fibroblasts and Matrigel were subcutaneously injected into mammary fat pads of female NOD/SCID mice received a sub-lethal dose of gamma irradiation in advance. After transplantation, cells of xenografted tumors were isolated and inoculated in NOD/SCID mice for serial passages. The cancer cell lines, xenograft cells, and primary breast tumor cells were re-suspended in a FACS buffer (PBS with 2% fetal bovine serum) and incubated at room temperature for 30 min with FITC-conjugated various peptides. To determine breast cancer stem cell (BCSCs) and non-breast cancer stem cell (non-BCSC) populations from xenografts, the cells were stained with a mixture of anti-H2Kd-biotin followed by streptavidin-PER-CP, anti-CD24-PE, anti-CD44-APC and FITC-conjugated various peptides. The primary breast tumor cells were stained with anti-CD45-PerCP-Cy5.5 antibodies, instead of H2Kd staining. The stained cells were then subjected to FACS analysis.
In general terms: In flow cytometry, cells or beads pass a laser one at a time.

In a further assay the test system is MDA-MB-231 cells. Kind of assay: Flow cytometry binding of FITC-labeled peptide, MDA-MB-231. Format: cell-based. The settings on record: Breast. As to the method: as §1
In assay [2] the test system is human primary breast cancer BC0145 and BC0244 engrafted in NOD/SCID mice. In words: Flow cytometry binding of FITC-labeled peptides to xenograft cells (BCSC-enriched and non-BCSC). The class given is cell-based. The settings on record: for Binding capacities in vitro compared with L-peptide: both BCSCs and non-BCSCs. On the procedure: To evaluate the in vitro binding abilities of cancer-targeting peptides described herein, the FITC-labeled L-peptide, P-6, P-12, P-13, and P-16 were tested for their binding activities to cancer cells, primary breast cancer engrafted in NOD/SCID mice, and clinical breast cancer specimens by a flow cytometric analysis as described below.
as §1
The binding capacities of the L-peptide and the P-6, P-12, P-13, and P-16 peptides to two xenograft samples from NOD-SCID mice transplanted with human primary breast cancer cell lines BC0145 and BC0244 were evaluated with special focus on their binding to the BCSC subpopulation enriched from the breast cancer cells. Breast cancer cells harvested from engrafted tumors were stained with H2Kd to gate out mouse cells, and stained with anti-CD24 and anti-CD44 antibodies to distinguish BCSC-enriched cells (CD24^−CD44^+) from non-BCSC cells. These cells were co-stained with one of the above-noted peptides, which was FITC-labeled and subjected to flow cytometric analysis. […] The binding abilities of these peptides to clinical breast specimens were similar to those to xenograft samples. […] FIG. 7, panel d.

With `CC(C)C[C@H](NC(=O)[C@H](CC(C)C)NC(=O)[C@@H](N)CCCNC(=N)N)C(=O)N[C@@H](CC(=O)O)C(=O)N[C@H](C(=O)N[C@@H](CC(N)=O)C(=O)N[C@@H](CCCNC(=N)N)C(=O)N1CCC[C@H]1C(=O)N[C@@H](CC(C)C)C(=O)N[C@@H](CC(C)C)C(=O)N1CCC[C@H]1C(=O)N[C@@H](Cc1ccc(O)cc1)C(=O)O)[C@@H](C)O` [L-peptide] (H-RLLDTNRPLLPY-OH), the pKd (in general, −log10 of the Kd, conventionally taken in molar units) at GRP78 is 5.00 to 6.00.

Turning to RLLDTNRPDLPY [PA-3], the Binding index in assay [1] is on record as below 0.2.

RLLDTNRPELPY [PA-2]: the Binding index in assay [1] is on record as below 0.2.

Turning to RLLDTNRPFLFY [P-13], in assay [1], the “Binding to GRP78 compared to the L-peptide” value is recorded as “bound to GRP78 better than the L-peptide”, the “binding responses in Biacore” value is recorded as “significant binding responses” and the Binding index was 1.4~3.5. Moreover, in the assay on TW01 cells, the Binding ability entry was “bound”. Further, the Binding ability result in the assay with MDA-MB-231 cells was “bound”. For the same compound, the “Staining strength (order of binding)” value in assay [2] (FITC-labeled peptides, BCSC-enriched and non-BCSC cells of BC0145 and BC0244 xenografts) is on record as “stained most strongly”. Besides, the “Binding capacities in vitro compared with L-peptide” value in assay [2] (FITC-labeled peptides) was “greater binding capacities in vitro than L-peptide”.

As for RLLDTNRPFLKY [P-10], the Binding index in assay [1] is below 0.2.

RLLDTNRPFLPY [P-6]: in assay [1], the “Binding to GRP78 compared to the L-peptide” value is reported as “bound to GRP78 better than the L-peptide”, the “binding responses in Biacore” value is recorded as “significant binding responses” and the Binding index was 1.1~1.52. The Binding ability result in the assay on TW01 cells is reported as “bound”. Besides, the Binding ability result in the assay with MDA-MB-231 cells is “bound”. Besides, the “binding capacity to BCSC-enriched cells” value in assay [2] (FITC-labeled peptide, BCSC-enriched cells isolated from the BC0145 xenograft) is recorded as “equivalent to P-12”. Besides, the “Binding capacities in vitro compared with L-peptide” value in assay [2] (FITC-labeled peptides) is on record as “greater binding capacities in vitro than L-peptide”.

As for RLLDTNRPFLWY [PB-1], in assay [1], the “binding responses in Biacore” value is “significant binding responses” and the Binding index is on record as 1.6.

As to RLLDTNRPHLKY [P-15], in assay [1], the Binding index was below 0.2.

RLLDTNRPHLPY [PA-6]: in assay [1], the Binding index amounted to 0.47.

Regarding RLLDTNRPHLWY [P-12], in assay [1], the “Binding to GRP78 compared to the L-peptide” value is “bound to GRP78 better than the L-peptide”, the “binding responses in Biacore” value is reported as “significant binding responses” and the Binding index is given as 1.2~3.5. The Binding ability result in the assay on TW01 cells is “bound”. The Binding ability entry in the assay with MDA-MB-231 cells is listed as “bound”. In assay [2] (FITC-labeled peptides), the “Binding capacities in vitro compared with L-peptide” value was “greater binding capacities in vitro than L-peptide”.

For the compound RLLDTNRPKLFY [P-4], the Binding index in assay [1] is recorded as below 0.2.

Take RLLDTNRPKLRY [P-16]: in assay [1], the Binding index was below 0.2.

Take RLLDTNRPKLVY [P-2]: the Binding index in assay [1] was below 0.2.

For “RLLDTNRPL(d-L)PY (RLLDTNRPL[dL]PY) [CdL, negative control peptide, reference compound]”, the Binding index in assay [1] is below 0.2.

RLLDTNRPLLGY [P-11]: the Binding index in assay [1] was 0.77.

With RLLDTNRPLLLY [P-14], in assay [1], the Binding index came to 0.21.

On to “RLLDTNRPLLPY(CONH2) (RLLDTNRPLLPY-NH2) [PB-3, L-peptide modified with the amidation (CONH2)]”, for which, in assay [1], the “Binding to GRP78 compared to the L-peptide” value was “did not significantly affect the binding affinity”, the “binding responses in Biacore” value is “significant binding responses” and the Binding index worked out at 1.15.

In the case of RLLDTNRPMLKY [P-8], in assay [1], the Binding index was below 0.2.

With RLLDTNRPMLMY [P-5], the Binding index in assay [1] was below 0.2.

For RLLDTNRPNLPY [PA-4], the Binding index in assay [1] was 0.31.

As to RLLDTNRPPLCY [P-9], in assay [1], the Binding index is given as below 0.2.

In the case of RLLDTNRPQLPY [PA-5], the Binding index in assay [1] is given as 0.3.

In the case of RLLDTNRPQLVY [P-3], in assay [1], the Binding index is given as below 0.2.

As for RLLDTNRPRLEY [P-17], the Binding index in assay [1] was below 0.2.

Take RLLDTNRPSLFY [P-7]: the Binding index in assay [1] is recorded as below 0.2.

For RLLDTNRPWLPY [PA-1], in assay [1], the “Binding to GRP78 compared to the L-peptide” value is given as “significantly decreased the binding” and the Binding index was 0.35.

RLLDTNRPYLKY [P-1]: the Binding index in assay [1] was below 0.2.

As to RLLDTNRPYLWY [PB-2], in assay [1], the “binding responses in Biacore” value is recorded as “significant binding responses” and the Binding index was 3.
